The results in this text go back to patent US20190062395A1 (MEDICENNA THERAPEUTICS, published 2019).

For orientation: Kd means the constant that tells how readily two partners part at equilibrium. Read a high Kd as weaker binding.

This assay concerns the target T1, interleukin 2 receptor beta (IL-2Rβ) (UniProt P14784 27-240, limits assumed).
T1 construct: also called CD122
T1 sequence (looked up): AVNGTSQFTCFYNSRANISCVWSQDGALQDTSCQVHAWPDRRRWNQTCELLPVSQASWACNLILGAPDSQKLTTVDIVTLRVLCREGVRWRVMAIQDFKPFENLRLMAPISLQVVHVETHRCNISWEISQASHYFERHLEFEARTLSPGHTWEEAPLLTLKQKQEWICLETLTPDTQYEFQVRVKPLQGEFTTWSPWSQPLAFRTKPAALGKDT
Briefly: method not stated; Kd column of the H9 substitution matrix; target not given.

B1: H9 (IL-2 mutein having the amino acid substitutions L80F, R81D, L85V, I86V, and I92F, numbered in accordance with wild-type human IL-2 of SEQ ID NO:2) (ligand)
chain: APTSSSTKKTQLQLEHLLLDLQMILNGINNYKNPKLTRMLTFKFYMPKKATELKHLQCLEEELKPLEEVLNLAQSKNFHFDPRDVVSNINVFVLELKGSETTFMCEYADETATIVEFLNRWITFCQSIISTLT
notes: also called IL-2 superkine
In turn, B1 showed a Kd of 1.3 nM.
